Target: the molecule itself
Experiment: FRET or BRET

B1: PCNA-WC2-AEDANS (human PCNA N107W-T185C-C27M-W28F-C62M-C81S-C148S-C135S-C162S, labelled with AEDANS at C185) (natural protein)
chain: MFEARLVQGSILKKVLEALKDLINEAMFDISSSGVNLQSMDSSHVSLVQLTLRSEGFDTYRMDRNLAMGVNLTSMSKILKSAGNEDIITLRAEDNADTLALVFEAPWQEKVSDYEMKLMDLDVEQLGIPEQEYSSVVKMPSGEFARISRDLSHIGDAVVISSAKDGVKFSASGELGNGNIKLSQCSNVDKEEEAVTIEMNEPVQLTFALRYLNFFTKATPLSSTVTLSMSADVPLVVEYKIADMGHLKYYLAPKIEDEEGS
modifications: AEDANS on the cysteine at 185 (T185C), labelled with IAEDANS
Question: Does B1 bind?
Answer: Result: binds

From PMC6527350 (Journal of molecular biology, 2019)
